In paper doi:10.1101/2022.10.04.510906 (bioRxiv, 2022):

Target: T1, V/A-ATPase D subunit (Thermus thermophilus, UniProt O87880 1-223)
T1 sequence: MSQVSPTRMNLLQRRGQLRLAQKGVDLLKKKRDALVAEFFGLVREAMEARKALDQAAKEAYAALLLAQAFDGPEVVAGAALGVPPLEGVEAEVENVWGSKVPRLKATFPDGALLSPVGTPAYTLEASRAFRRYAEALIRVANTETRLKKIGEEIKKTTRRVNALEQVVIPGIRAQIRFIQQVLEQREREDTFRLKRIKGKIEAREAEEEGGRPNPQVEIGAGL
Experiment: cryo-EM structure

- binding result: binds
B1: V/A-ATPase F subunit (natural protein, Thermus thermophilus)
chain: MAVIADPETAQGFRLAGLEGYGASSAEEAQSLLETLVERGGYALVAVDEALLPDPERAVERLMRGRDLPVLLPIAGLKEAFQGHDVEGYMRELVRKTIGFDIKL
